These results are taken from paper PMC8939767 (Science Translational Medicine, 2022).

For this test, the target named is SARS-CoV-2 spike S2P (soluble S trimer with two proline mutations) (SARS-CoV-2, Wuhan reference, UniProt P0DTC2, stabilised). Kind of test: BLI; […] (AHC) sensors, […], association 120 s, […]. Conditions: both partners purified. A general note: Biolayer interferometry detects binding as a change in optical thickness at a sensor tip.

B1: CC40.8 broadly neutralizing antibody (IgG) (antibody, V domains shown)
VH: EVQLLESGGGLVQPGGSLRLSCAASGFTFSSYVMTWARQAPGKGLEWVSAISGTGYTYYADSVKGRFTVSRDNSKNTLFLQMSSLRAEDTAVYYCAITMAPVVWGQGTTVTVSS
VL: SYELTQPPSVSVSPGQTARITCSGDALPKRYAYWYQQKSGQAPILVIYEDKKRPSGIPERLSGSKSGTVATLTISGAQVEDEADYYCYSTDSSGNHAVFGGGTQLTVL
notes: also called CC40.8 bnAb; CC40.8 mAb
Turning to B1, the binding result is reported as “binds”.
